Experimental data: the supplement of paper PMC10126150
± gives the standard deviation of the averaged measurements.

Tested on: ATP
Assay: switch fluorescence ratio, 500 uM ATP over buffer (Cy3 cluster intensity, sum of 5 cycles each) (fold (ratio)); higher = stronger signal-on switching upon ATP binding; sequences stand for … in TCGTCGGCAGCGTCAGATGTGTATAAGAGACAGTTTTTTTTTTTTTTTTTTTTTTTTT…TC
Settings: aptamer strand: ATP DNA aptamer (quencher-CACCTGGGGGAGTATTGCGGAGGAAGG + anchor), 100 nM annealed; ATP concentration: 500 uM
Procedure, shortened: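 Values give the fluorescence ratio for each switch-domain sequence, averaged from per-cluster ratios of summed target-cycle to summed buffer-cycle Cy3 intensity. The Cy3-labelled switching-strand clusters sat on a modified Illumina MiSeq flow-cell, were annealed to 100 nM quencher-labelled ATP aptamer, and were imaged in selection buffer, then after 15 min with 500 uM ATP at 22 °C. Five cycles ran with NaOH stripping and re-annealing between them, and clusters outside 100-1000 RFU were excluded.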
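Also: ATP exposure 15 min at 22 °C before imaging.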

Sequence	switch fluorescence ratio
GCGGGTAGCA	1.04 ± 0.029
GCGGGTTACT	1.053 ± 0.0028
GCGGTAGCAG	0.979 ± 0.024
GCGGTAGTAC	1.14 ± 0.013
GCGGTCGGGC	0.9952 ± 0.0076
GCGGTGAGAA	0.983 ± 0.028
GCGGTGAGGC	0.9709 ± 0.0056
GCGGTGATGG	1 ± 0.035
GCGGTGCGGG	0.9878 ± 0.0042
GCGGTGGGTT	0.9862 ± 0.0096
GCGGTGTTTT	1.03 ± 0.05
GCGGTTCCTC	1.05 ± 0.027
GCGGTTGGAA	0.9927 ± 0.0034
GCGGTTTTTT	1.22 ± 0.35
GCGTAACAGT	0.964 ± 0.045
GCGTAAGTGC	1.092 ± 0.006
GCGTACCAAT	1.067 ± 0.0033
GCGTAGGGG	0.967 ± 0.028
GCGTATAGGA	1.01 ± 0.035
GCGTATAGGG	0.964 ± 0.033
GCGTATTGAG	1.02 ± 0.022
GCGTATTTTT	1.01 ± 0.029
GCGTCAATTA	1.08 ± 0.03
GCGTCGATTA	0.96 ± 0.015
GCGTCTAGGA	0.9839 ± 0.0033

Sequence	switch fluorescence ratio
GCGTCTATGA	1 ± 0.016
GCGTGAGCGA	0.985 ± 0.042
GCGTGATTTG	0.9959 ± 0.0045
GCGTGGAGA	1 ± 0.03
GCGTGGGGGT	1.01 ± 0.012
GCGTTAACTC	1.08 ± 0.026
GCGTTAAGGG	0.964 ± 0.053
GCGTTAAGTA	1.005 ± 0.0085
GCGTTAAGTT	0.984 ± 0.035
GCGTTAGGCG	1.01 ± 0.044
GCGTTATAAG	1.01 ± 0.049
GCGTTCAGGC	0.994 ± 0.063
GCGTTCCTTA	0.971 ± 0.024
GCGTTGCCAG	0.9816 ± 0.0081
GCGTTTCCTC	1.08 ± 0.033
GCGTTTCGGA	1 ± 0.02
GCGTTTGCAT	1.03 ± 0.034
GCGTTTTTGG	0.998 ± 0.029
GCGTTTTTTT	0.98972 ± 0.0007
GCTAAAACCT	2.25 ± 0.23
GCTAAATTCC	1.11 ± 0.027
GCTAACAGAG	0.984 ± 0.035
GCTAACCCTT	1.06 ± 0.0036
GCTAACGGAG	1.0112 ± 0.00048
GCTAATTGGC	1.04 ± 0.098

Sequence	switch fluorescence ratio
GCTACCGTTT	1.04 ± 0.041
GCTACGACGG	1.05 ± 0.012
GCTACTGGCC	1.02 ± 0.039
GCTACTTTGG	1.06 ± 0.048
GCTAGATCGT	0.969 ± 0.033
GCTAGGAACT	0.979 ± 0.019
GCTAGGAGTA	0.987 ± 0.0091
GCTAGGCCTC	1.01 ± 0.038
GCTAGGCTGG	0.97301 ± 0.0002
GCTAGGGCTT	1.01 ± 0.062
GCTAGTAAGT	0.9819 ± 0.0063
GCTAGTGCTT	0.956 ± 0.011
GCTAGTGGC	0.985 ± 0.079
GCTAGTTTCG	1.03 ± 0.019
GCTATATGTG	0.98 ± 0.069
GCTATATTGG	0.9933 ± 0.0091
GCTATGGTGC	1.026 ± 0.0038
GCTATTAGGA	0.984 ± 0.033
GCTATTATAC	1.47 ± 0.0019
GCTATTGGGA	1.01 ± 0.022
GCTATTTGTA	1.01 ± 0.023
GCTCAAGCCT	1.06 ± 0.028
GCTCAATCTA	1.01 ± 0.006
GCTCATTTCG	1.02 ± 0.042
GCTCCAATAA	2.49 ± 0.047

Sequence	switch fluorescence ratio
GCTCCAATTT	1.07 ± 0.034
GCTCCGGCGG	1.24 ± 0.045
GCTCCGTGGG	1.93 ± 0.1
GCTCCTGTTA	1.11 ± 0.027
GCTCGAGATT	1.026 ± 0.0027
GCTCGCACAG	1.321 ± 0.0081
GCTCGGGGTG	0.986 ± 0.032
GCTCGTACGT	1.01 ± 0.031
GCTCGTCGGC	0.9987 ± 0.0018
GCTCGTTAAA	1.04 ± 0.1
GCTCGTTTGG	0.9745 ± 0.0041
GCTCGTTTTG	0.981 ± 0.043
GCTCTAGTGG	1.01 ± 0.022
GCTCTATAAT	1.03 ± 0.0044
GCTCTATGAC	1.08 ± 0.044
GCTCTCACTT	1.02 ± 0.043
GCTCTGAGCT	1.05 ± 0.086
GCTCTGGGGA	1.07 ± 0.12
GCTCTGGGGT	1.02 ± 0.033
GCTCTTAGCG	1.03 ± 0.054
GCTCTTGTCT	0.985 ± 0.061
GCTCTTGTTC	0.9975 ± 0.0083
GCTGAAAAGA	0.97 ± 0.032
GCTGAAAGGC	1.09 ± 0.061
GCTGAAAGGG	0.9903 ± 0.0067

Sequence	switch fluorescence ratio
GCTGAAGTTC	0.993 ± 0.025
GCTGACGGGA	1.1 ± 0.015
GCTGAGGCTG	1 ± 0.032
GCTGAGGGAA	1.01 ± 0.028
GCTGATAACG	1.01 ± 0.035
GCTGATTTAT	0.982 ± 0.018
GCTGCGAATT	1.021 ± 0.01
GCTGCGGCAG	1.012 ± 0.0046
GCTGCGGGCT	1.18 ± 0.24
GCTGCTGGTA	1.02 ± 0.024
GCTGCTGTTT	1.01 ± 0.0037
GCTGCTTGCG	1 ± 0.014
GCTGGAAAAT	1 ± 0.013
GCTGGACGTG	0.9912 ± 0.0055
GCTGGGGACT	0.996 ± 0.02
GCTGGGGCAG	1.016 ± 0.01
GCTGGGGGCC	0.981 ± 0.028
GCTGGGGGGG	1.02 ± 0.037
GCTGGTCATG	0.989 ± 0.018
GCTGGTGCGA	1.005 ± 0.0099
GCTGGTGCTT	0.974 ± 0.022
GCTGGTTGA	1.01 ± 0.014
GCTGTCCGGA	1.048 ± 0.0054
GCTGTGATA	0.976 ± 0.019
GCTGTGCACG	1.02 ± 0.02

Sequence	switch fluorescence ratio
GCTGTGCGGG	0.95 ± 0.018
GCTGTGGGCA	0.977 ± 0.02
GCTGTGTAGG	0.994 ± 0.013
GCTGTTGCTG	1 ± 0.035
GCTTAAATCT	1.01 ± 0.029
GCTTAATACT	1.37 ± 0.054
GCTTACGGGA	1.028 ± 0.0016
GCTTAGAGGA	1 ± 0.03
GCTTATCTTT	0.978 ± 0.051
GCTTATGAAG	1.02 ± 0.02
GCTTATTATT	1.023 ± 0.0026
GCTTCAAGGC	1.03 ± 0.045
GCTTCAATGT	1.03 ± 0.067
GCTTCCTGTG	1.49 ± 0.036
GCTTCGGAGA	1.029 ± 0.0017
GCTTCTAGCT	0.969 ± 0.011
GCTTCTGGCA	0.999 ± 0.023
GCTTGAGGCT	0.959 ± 0.06
GCTTGCTCAT	1.018 ± 0.0094
GCTTGGAAGC	0.9909 ± 0.0089
GCTTGTACGT	1.021 ± 0.0096
GCTTGTAGCT	1.02 ± 0.0095
GCTTGTAGGC	0.994 ± 0.017
GCTTGTAGGG	0.969 ± 0.011
GCTTGTATGA	1.013 ± 0.0032

Sequence	switch fluorescence ratio
GCTTGTTGTA	0.998 ± 0.015
GCTTTAACAC	1.03 ± 0.014
GCTTTATTAA	1 ± 0.017
GCTTTATTTT	1.09 ± 0.19
GCTTTCTGCG	1.05 ± 0.042
GCTTTGAATT	0.985 ± 0.017
GCTTTGCGCT	0.988 ± 0.015
GCTTTGGGGA	1 ± 0.025
GCTTTGTTTT	1.12 ± 0.3
GCTTTTAGTG	1 ± 0.039
GCTTTTGGGC	0.963 ± 0.023
GCTTTTTAAA	0.95 ± 0.016
GCTTTTTGGG	0.963 ± 0.039
GCTTTTTTGA	0.993 ± 0.042
GGAAAAATCG	1.013 ± 0.0051
GGAAAAATGA	1 ± 0.034
GGAAAAATGT	1.01 ± 0.025
GGAAAACCAG	0.982 ± 0.048
GGAAAAGTTC	1 ± 0.058
GGAAACCATT	1.03 ± 0.024
GGAAACTTTG	1.04 ± 0.11
GGAAAGACGA	1.01 ± 0.016
GGAAAGGTTT	1.01 ± 0.064
GGAAAGTGAT	1.2 ± 0.26
GGAAATTGTA	0.986 ± 0.0059

Sequence	switch fluorescence ratio
GGAACAGCTT	0.983 ± 0.017
GGAACGTATT	1.0119 ± 8.1e-05
GGAAGCGTTC	1.03 ± 0.04
GGAAGGCGGG	1.11 ± 0.16
GGAAGTGGGC	1.0283 ± 0.00079
GGAAGTTAGT	0.98253 ± 0.00016
GGAATAAAGT	0.996 ± 0.021
GGAATACTAG	1.14 ± 0.053
GGAATACTTT	1.01 ± 0.028
GGAATAGAGT	1.02 ± 0.021
GGAATCAGGG	0.99 ± 0.07
GGAATCCATG	0.977 ± 0.0013
GGAATGAAGT	1.07 ± 0.049
GGAATGCCGG	1.02 ± 0.021
GGAATGGTTT	0.987 ± 0.064
GGAATGTAGG	0.99 ± 0.027
GGAATGTTGG	0.991 ± 0.032
GGAATGTTTG	0.977 ± 0.035
GGAATTAAAT	0.985 ± 0.027
GGAATTATGA	0.995 ± 0.024
GGAATTATGT	1.02 ± 0.041
GGAATTCGAT	1.004 ± 0.006
GGAATTGGCG	1.03 ± 0.023
GGAATTGGGT	0.99 ± 0.044
GGACAAGAGA	0.996 ± 0.038
